From US7893032B2, “NgR variants and compositions thereof for suppressing axonal growth inhibition” (Yale University, priority 2005, dated 2011)

Experiments:
[1] = test system: E7 chick DRG growth cones; assay: Nogo-induced growth cone collapse in E7 chick DRG neurons expressing NgR proteins; type: cell-based; settings: for growth cone collapse in the presence of Nogo: E7 DRG cells expressing the protein from a viral vector, 100 μM Nogo-66 (FIG. 2 legend)
Protocol: (§1) FIG. 2 quantifies collapsed E7 (A) or E13 (B) chick DRG growth cones expressing the indicated proteins and exposed (dark) or not exposed (light) to 100 μM Nogo-66.
The signaling ability of the NgR mutant proteins was directly assessed by expressing the proteins in chick DRG neurons and monitoring Nogo-induced growth cone collapse. […] (FIG. 2A).

[2] = test system: E13 chick DRG growth cones; assay: Nogo-induced growth cone collapse in E13 chick DRG neurons overexpressing NgR proteins; type: cell-based; settings: E13 DRG cells with endogenous NgR; 100 μM Nogo-66 (FIG. 2 legend)
Protocol: as §1
At E13, DRG neurons express NgR and respond to Nogo with growth cone collapse that is not altered by overexpression of wild-type NgR. (FIG. 2B). […] (FIG. 2B). Thus, NgR-R377Q is a dominant negative protein.

B1: wild-type NgR: Wild-type full-length human NgR protein (protein, listed as Homo sapiens)
chain: MKRASAGGSRLLAWVLWLQAWQVAAPCPGACVCYNEPKVTTSCPQQGLQAVPVGIPAASQRIFLHGNRISHVPAASFRACRNLTILWLHSNVLARIDAAAFTGLALLEQLDLSDNAQLRSVDPATFHGLGRLHTLHLDRCGLQELGPGLFRGLAALQYLYLQDNALQALPDDTFRDLGNLTHLFLHGNRISSVPERAFRGLHSLDRLLLHQNRVAHVHPHAFRDLGRLMTLYLFANNLSALPTEALAPLRALQYLRLNDNPWVCDCRARPLWAWLQKFRGSSSEVPCSLPQRLAGRDLKRLAANDLQGCAVATGPYHPIWTGRATDEEPLGLPKCCQPDAADKASVLEPGRPASAGNALKGRVPPGDSPPGNGSGPRHINDSPFGTLPGSAEPPLTAVRPEGSEPPGFPTSGPRRRPGCSRKNRTRSHCRLGQAGSGGGGTGDSEGSGALPSLTCSLTPLGLALVLWTVLGPC
growth cone collapse in the presence of Nogo [1]: exhibited growth cone collapse in the presence of Nogo | effect of overexpression on extent of Nogo-induced growth cone collapse [2]: not altered

B2: NgR-R377Q: Full length human NgR R377Q mutant protein (protein)
chain: MKRASAGGSRLLAWVLWLQAWQVAAPCPGACVCYNEPKVTTSCPQQGLQAVPVGIPAASQRIFLHGNRISHVPAASFRACRNLTILWLHSNVLARIDAAAFTGLALLEQLDLSDNAQLRSVDPATFHGLGRLHTLHLDRCGLQELGPGLFRGLAALQYLYLQDNALQALPDDTFRDLGNLTHLFLHGNRISSVPERAFRGLHSLDRLLLHQNRVAHVHPHAFRDLGRLMTLYLFANNLSALPTEALAPLRALQYLRLNDNPWVCDCRARPLWAWLQKFRGSSSEVPCSLPQRLAGRDLKRLAANDLQGCAVATGPYHPIWTGRATDEEPLGLPKCCQPDAADKASVLEPGRPASAGNALKGRVPPGDSPPGNGSGPQHINDSPFGTLPGSAEPPLTAVRPEGSEPPGFPTSGPRRRPGCSRKNRTRSHCRLGQAGSGGGGTGDSEGSGALPSLTCSLTPLGLALVLWTVLGPC
modifications: Human NgR R377Q mutant
notes: Full length human NgR R377Q mutant protein
growth cone collapse in the presence of Nogo [1]: did not | signaling ability (signal transduction) ([1]; E7 DRG cells expressing the protein, Nogo-induced growth cone collapse as readout): inactive in signal transduction | effect of overexpression on extent of Nogo-induced growth cone collapse [2]: significantly decreased
